# B1: Mitochondrial import inner membrane translocase subunit Tim8 A (Homo sapiens), O60220 (parent)
# chain: MDSSSSSSAAGLGAVDPQLQHFIEVETQKQRFQQLVHQMTELCWEKCMDKPGPKLDSRAEACFVNCVERFIDTSQFILNRLEQTQKSKPVFSESLSD
# partner: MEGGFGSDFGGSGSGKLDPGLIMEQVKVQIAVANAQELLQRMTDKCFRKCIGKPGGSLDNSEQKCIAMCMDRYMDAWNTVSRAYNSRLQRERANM
# Variants of: B1
# Settings: with tim13_human TIMM13, Q9Y5L4
row,effect of a mutation on the interaction,Variant
1,disrupting interaction strength,MDSSSSSSAAGLGAVDPQLQHFIEVETQKQRFQQLVHQMTELCWEKCMDKPGPKLDSRAEACFVNWVERFIDTSQFILNRLEQTQKSKPVFSESLSD

# Reference: IntAct's records for PubMed 11956200
